Assay results from article PMC9399681, “Structural insight into ASH1L PHD finger recognizing methylated histone H3K4 and promoting cell growth in prostate cancer” (Frontiers in Oncology, 2022).
Where a chain is given by its changes, count along the chain named. Primed or numbered codes have the meaning given here. Where no end group is shown, it is not given here. [ ]: non-standard residue; d: D form. Me3″ = trimethylation (trimethyl-lysine); Me2 = dimethylation (dimethyl-lysine); Lys(Me2) = CN(C)CCCC[C@H](N)C(=O)O

T1: mASH1L PHD domain (residue 2573–2624) (mouse, UniProt Q99MY8 2573-2624)
T1 chain: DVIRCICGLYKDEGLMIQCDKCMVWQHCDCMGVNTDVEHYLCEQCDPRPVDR

T2: mASH1L PHD domain (residue 2573–2624) D2584E (mouse, UniProt Q99MY8 2573-2624, D2584E)
T2 construct: also called Asp2584 to Glu; source: E. coli BL21 (DE3), purified (MBPTrap, TEV cleavage, Superdex 75)
T2 sequence (looked up): T1 chain with D12E

T3: mASH1L PHD domain (residue 2573–2624) Q2590E (mouse, UniProt Q99MY8 2573-2624, Q2590E)
T3 construct: also called Gln2590 to glutamate; source: E. coli BL21 (DE3), purified (MBPTrap, TEV cleavage, Superdex 75)
T3 sequence (looked up): T1 chain with Q18E

B1: histone H3 (1–15) peptide, unmethylated on lysine 4 (peptide, UniProt P68431 2-16, looked up)
peptide: ARTKQTARKSTGGKA
notes: histone H3, residues 1-15; also called H3K4; H3K4me0; source: synthetic peptide (MIMOYOPES, Wuxi, China)
B2: histone H3 (1–15) peptide, monomethylated on lysine 4 (peptide, UniProt P68431 2-16, looked up)
peptide: ARTK(Me)QTARKSTGGKA
notes: histone H3, residues 1-15; also called H3K4me1; H3K4me; source: synthetic peptide (MIMOYOPES, Wuxi, China)
B3: histone H3 (2–16) peptide with dimethylation on lysine 9 (peptide, UniProt P68431 3-17, looked up)
peptide: RTKQTARK(Me2)STGGKAP
notes: histone H3, residues 2-16; also called H3K9me2; source: synthetic peptide (MIMOYOPES, Wuxi, China)
B4: histone H3 (29–43) peptide with dimethylation on lysine 36 (peptide)
chain: APATGGVK(Me2)KPHRYRP
B5: histone H3 (1–15) peptide, dimethylated on lysine 4 (peptide)
peptide: ART[Lys(Me2)]QTARKSTGGKA
notes: also called H3K4me2; H3K4me2 peptide (1–15); source: synthetic peptide (MIMOYOPES, Wuxi, China)
B6: histone H3 (1–15) peptide, trimethylated on lysine 4 (peptide, UniProt P68431 2-16, looked up)
peptide: ARTK(Me3″)QTARKSTGGKA
notes: histone H3, residues 1-15; also called H3K4me3; source: synthetic peptide (MIMOYOPES, Wuxi, China)

Legend:
[1] = biological target: T4, ASH1L PHD finger (Mus musculus, UniProt Q99MY8); assay: 1H,15N HSQC chemical shift perturbation; format: binding, mASH1L; conditions: protein-to-peptide molar ratio 1:5; 298 K, 800 MHz, 1×PBS, pH 7.2, 100-μM ZnCl2
T4 construct: The mASH1L PHD domain (residue 2573–2624); MBP (cleaved yes); made in house; host or cells: Escherichia coli BL21 (DE3)
Text: The mASH1L PHD domain (residue 2573–2624) was subcloned into a modified pMAL-c5X expression vector (New England Biolabs, Ipswich, MA, US), which contains an MBP tag and a TEV cleavage site. The site-directed mutagenesis of D2573A, I2575A, D2584E, E2585A, M2588A, Q2590E, and W2597A in the PHD domain was generated using the PfuTurbo DNA polymerase (Agilent Technologies) and Dpn I restriction enzyme (New England Biolabs). After the MBP tag was cut by TEV, these proteins were used in ITC and NMR experiments. The His-tagged PHD domain was subcloned into a pGEX-4T1 expression vector. The base vector has a GST tag and was engineered to include a TEV cleavage site before a 5′ 6×His sequence. […]
The bacteria were grown in Luria Broth (LB) media, supplemented with 100-μM ZnCl2 (all PHD constructs). […] The size and purity of the purified protein were monitored by SDS-PAGE. The PHD protein was concentrated with a filter tube (Millipore, Co. Cork, Ireland) and measured by UV absorbance at 280 nm.
The ^1H,^15N HSQC spectra of the ^15N-labeled PHD finger were collected at 298 K on a Bruker 800-MHz NMR spectrometer equipped with the z-gradient triple-resonance cryoprobe. The binding was analyzed through monitoring chemical shift perturbations observed in the two-dimensional ^1H,^15N HSQC spectra of PHD finger upon the addition of H3 (aa 1-15) peptides (H3K4me, H3K4me2, H3K4me3). […]

[2] = biological target: T4, ASH1L PHD finger; assay: ITC, ASH1L PHD finger with H3 peptides; format: binding, mASH1L; conditions: 1×PBS, 100-μM ZnCl2, pH 7.2; for binding by ITC, in words: 25°C
Method: The bacteria were grown in Luria Broth (LB) media, supplemented with 100-μM ZnCl2 (all PHD constructs). All PHD domains were expressed in Escherichia coli BL21 (DE3) cells and induced overnight with 0.5-mM isopropyl-β-D-1-thiogalactopyranoside (IPTG) at 22°C. In addition, the cells were harvested by centrifugation at 4,000 g. The harvested cells with MBP-tagged PHD were resuspended in buffer containing 25-mM Tris, pH 7.2, 1-M NaCl, 20-mM β-mercaptoethanol, 100-μM ZnCl2, and the Complete EDTA-free Protease Inhibitor (Roche, Mannheim, Germany). Following lysis in a microfluidizer (MFIC), cell debris was removed by centrifugation at 12,000 g for 1 h and the supernatant was loaded on a 5-ml MBPTrap HP column (GE Healthcare). The binding protein was eluted with buffer containing 25-mM Tris, pH 7.2, 500-mM NaCl, 20-mM β-mercaptoethanol, 20-mM maltose, and 100-μM ZnCl2. After TEV cleavage, the PHD domain was supplemented with 20-mM DTT and further purified using a Superdex 75 column (GE Healthcare, Uppsala, Sweden) in a final buffer containing 1×PBS, pH 7.2, 100- μM ZnCl2. […] The PHD protein was concentrated with a filter tube (Millipore, Co. Cork, Ireland) and measured by UV absorbance at 280 nm.
ITC assays were carried out on the MicroCal iTC200 System (Malvern) at 25°C while stirring at 750 rpm in the ITC buffer of pH 7.2, consisting of 1×PBS, 100-μM ZnCl2. […] The PHD or tandem Bromo-PHD protein sample of 100 µM was placed in the cell and titrated with 3 mM of a different peptide solution in the ITC buffer using a set of 31 injections of 1.2 μl, following a single initial injection of 0.2 μl. In the ITC measurements of PHD mutant samples, the H3 (1–15) peptides were diluted to the final concentrations of 1.5 mM, titrated with a single initial injection of 0.4 μl and followed with a set of 19 injections of 2 μl. Cumulative enthalpy exchange plots were derived from the raw thermal changes, using one set of a site-fitting model.

[3] = biological target: T5, His-tagged Bromo-PHD tandem domain (residue 2425–2627) of mASH1L (mouse, UniProt Q99MY8 2425-2627); assay: ITC; MicroCal iTC200, 25°C, 1×PBS pH 7.2, 100 μM ZnCl2; 100 µM PHD or tandem Bromo-PHD in the cell, titrated with 3 mM peptide (31 injections of 1.2 μl); one set of sites model; conditions: both partners purified
T5 construct: ASH1L (mASH1L), bromodomain and PHD finger in tandem, residues 2425-2627; pNIC-Bsa4 vector; no cleavage of the His tag is described; also called tandem Bromo-PHD protein; source: E. coli BL21 (DE3), purified (HiTrap IMAC FF, Superdex 75)

[4] = biological target: mASH1L PHD domain (residue 2573–2624) (mouse) (UniProt Q99MY8); assay: as above
[5] = biological target: mASH1L PHD domain (residue 2573–2624) Q2590E (mouse, UniProt Q99MY8 2573-2624, Q2590E); assay: ITC
[6] = biological target: T1, mASH1L PHD domain (residue 2573–2624); assay: ITC
[7] = biological target: mASH1L PHD domain (residue 2573–2624) W2597A (mouse, UniProt Q99MY8 2573-2624, W2597A); assay: ITC
[8] = biological target: mASH1L PHD domain (residue 2573–2624) E2585A (mouse, UniProt Q99MY8 2573-2624, E2585A); assay: ITC
[9] = biological target: mASH1L PHD domain (residue 2573–2624) D2573A (mouse, UniProt Q99MY8 2573-2624, D2573A); assay: ITC
[10] = biological target: mASH1L PHD domain (residue 2573–2624) M2588A (mouse, UniProt Q99MY8 2573-2624, M2588A); assay: ITC
[11] = biological target: T2, mASH1L PHD domain (residue 2573–2624) …; assay: ITC; PHD mutants in the cell; H3 (1–15) peptides at 1.5 mM, 19 injections of 2 μl; 25°C, 1×PBS pH 7.2, 100 μM ZnCl2; one set of sites model; conditions: both partners purified
[12] = biological target: T3, mASH1L PHD domain (residue 2573–2624) …; assay: as above; conditions: both partners purified
[13] = biological target: mASH1L PHD domain (residue 2573–2624) (mouse) (UniProt Q99MY8); assay: NMR titration; 1H,15N HSQC; 100 μM PHD domain titrated with 25 to 2,000 μM peptide; 1×PBS pH 7.2, 100 μM ZnCl2, 298 K; single-site binding model
[14] = biological target: T6, mASH1L PHD domain (residue 2573–2624) (mouse, UniProt Q99MY8 2573-2624); assay: ITC; MicroCal iTC200, 25°C, 1×PBS pH 7.2, 100 μM ZnCl2; 100 µM PHD or tandem Bromo-PHD in the cell, titrated with 3 mM peptide (31 injections of 1.2 μl); one set of sites model; conditions: both partners purified
T6 construct: 15N- or 13C-labelled for the NMR experiments; also called ASH1L PHD finger; source: E. coli BL21 (DE3), purified (MBPTrap, TEV cleavage, Superdex 75)

[15] = biological target: mASH1L PHD domain (residue 2573–2624) I2575A (mouse, UniProt Q99MY8 2573-2624, I2575A); assay: ITC

Molecule	Kd [3] [µM]	Kd [4] [µM]	Kd [5] [µM]	Kd [7] [µM]	Kd [8] [µM]	Kd [9] [µM]	Kd [10] [µM]	Kd [11] [µM]	binding result [12]	Kd [13] [µM]	further results
CC(C)[C@H](NC(=O)CNC(=O)CNC(=O)[C@@H](NC(=O)[C@H](C)NC(=O)[C@@H]1CCCN1C(=O)[C@H](C)N)[C@@H](C)O)C(=O)N[C@@H](CCCCN(C)C)C(=O)N[C@@H](CCCCN)C(=O)N1CCC[C@H]1C(=O)N[C@@H](Cc1c[nH]cn1)C(=O)N[C@@H](CCCNC(=N)N)C(=O)N[C@@H](Cc1ccc(O)cc1)C(=O)N[C@@H](CCCNC(=N)N)C(=O)N1CCC[C@H]1C(=O)O [H3K36me2]	–	–	–	–	–	–	–	–	–	–	HSQC chemical shift perturbation [1]: binds with methylated H3K4 peptides but not H3K4me0, H3K9me2, or H3K36me2 peptides; binding by ITC, in words [2]: weak binding affinity
C[C@H](NC(=O)[C@@H](NC(=O)[C@H](CCC(N)=O)NC(=O)[C@H](CCCCN)NC(=O)[C@@H](NC(=O)[C@@H](N)CCCNC(=N)N)[C@@H](C)O)[C@@H](C)O)C(=O)N[C@@H](CCCNC(=N)N)C(=O)N[C@@H](CCCCN(C)C)C(=O)N[C@@H](CO)C(=O)N[C@H](C(=O)NCC(=O)NCC(=O)N[C@@H](CCCCN)C(=O)N[C@@H](C)C(=O)N1CCC[C@H]1C(=O)O)[C@@H](C)O [H3K9me2]	–	–	–	–	–	–	–	–	–	–	HSQC chemical shift perturbation [1]: binds with methylated H3K4 peptides but not H3K4me0, H3K9me2, or H3K36me2 peptides; binding by ITC, in words [2]: weak binding affinity; Kd ([2]; MicroCal iTC200, 25°C, 100 µM protein titrated with 3 mM peptide, H3 (1–15) peptides, H3 (2–16) K9me2, H3 (29–43) K36me2): > 500 µM
B1	> 500	> 300	–	–	–	–	–	–	–	–	–
B2	~64	75	31	> 200	140	188	> 200	~54	binds	181	Kd [6]: 41 µM
B3	–	–	–	–	–	–	–	–	–	–	Kd [14]: > 500 µM
B4	–	–	–	–	–	–	–	–	–	–	Kd [14]: > 500 µM
B5	~29	39	35	> 200	174	71	> 200	~26	binds	238	Kd [15]: > 200 µM
B6	~48	64	33	> 200	49	86	> 200	~38	binds	106	Kd [6]: 33 µM; Kd [15]: 103 µM
